Changes are numbered by the printed parent chain. Names and notes keep the numbering of the source.

These results are taken from PMC5538626, “Structural and functional analysis of the GABARAP interaction motif (GIM)” (EMBO Reports, 2017).

One test has as its system GFP-LC3B. Description: Co-immunoprecipitation of full-length PLEKHM1 LIR variants with GFP-LC3B. The following applies: full-length PLEKHM1-Flag, Fig 4C.
Another test concerns endogenous GABARAP. Description: Co-immunoprecipitation of GFP-FUNDC1 with endogenous GABARAP, HEK293 cells. The format is cell-based. The settings on record: HEK293, non-stimulated (DMSO); Fig 5C left. How it is done: (§1) Blots were probed for the presence of endogenous GABARAP and LC3B proteins. • 3xFlag‐FIP200 WT, E703V, I705V, E703V/I705V and F702A/I705A were overexpressed in HEK293 cells and immunoprecipitated using anti‐Flag beads and subjected to SDS–PAGE and Western blotting. Blots were probed for the presence of endogenous GABARAP and LC3B proteins. • GFP‐FUNDC1 WT, E19V, L21V, E19V/L21V and Y18A/L21A were overexpressed in HEK293 cells and either treated with vehicle only (DMSO) or 20 μM CCCP for 2 h, lysed and GFP‐FUNDC1 immunoprecipitated using anti‐GFP beads (or anti‐RFP beads as control) and subjected to SDS–PAGE and Western blotting. Blots were probed for the presence of endogenous GABARAP and LC3B proteins.

The next test concerns endogenous LC3B. Description: Co-immunoprecipitation of GFP-FUNDC1 with endogenous LC3B, HEK293 cells. It is filed as cell-based. The following applies: HEK293, non-stimulated (DMSO); Fig 5C left. On the procedure:
as §1

B1: PLEKHM1‐WCIL (full length): full-length PLEKHM1-Flag, variant LIR WVNV/WCIL (protein)
chain: MLSVVENGLDPQAAIPVIKKKLVGSVKALQKQYVSLDTVVTSEDGDANTMCSALEAVFIHGLHAKHIRAEAGGKRKKSAHQKPLPQPVFWPLLKAVTHKHIISELEHLTFVNTDVGRCRAWLRLALNDGLMECYLKLLLQEQARLHEYYQPTALLRDAEEGEFLLSFLQGLTSLSFELSYKSAILNEWTLTPLALSGLCPLSELDPLSTSGAELQRKESLDSISHSSGSEDIEVHHSGHKIRRNQKLTASSLSLDTASSSQLSCSLNSDSCLLQENGSKSPDHCEEPMSCDSDLGTANAEDSDRSLQEVLLEFSKAQVNSVPTNGLSQETEIPTPQASLSLHGLNTSTYLHCEAPAEPLPAQAASGTQDGVHVQEPRPQAPSPLDLQQPVESTSGQQPSSTVSETAREVGQGNGLQKAQAHDGAGLKLVVSSPTSPKNKSWISEDDFYRPSREQPLESASDHPIASYRGTPGSRPGLHRHFSQEPRKNCSLGALDQACVPSPGRRQAQAAPSQGHKSFRVVHRRQMGLSNPFRGLMKLGTVERRGAMGIWKELFCELSPLEFRLYLSNEEHTCVENCSLLRCESVGPAHSDGRFELVFSGKKLALRASSQDEAEDWLDRVREALQKVRPQQEDEWCILQYPDQPEEPPEAPQGCLSPSDLLSEPAALQGTQFDWSSAQVPEPDAIKESLLYLYMDRTWMPYIFSLSLEALKCFRIRNNEKMLSDSHGVETIRDILPDTSLGGPSFFKIITAKAVLKLQAGNAEEAALWRDLVRKVLASYLETAEEAVTLGGSLDENCQEVLKFATRENGFLLQYLVAIPMEKGLDSQGCFCAGCSRQIGFSFVRPKLCAFSGLYYCDICHQDDASVIPARIIHNWDLTKRPICRQALKFLTQIRAQPLINLQMVNASLYEHVERMHLIGRRREQLKLLGDYLGLCRSGALKELSKRLNHRNYLLESPHRFSVADLQQIADGVYEGFLKALIEFASQHVYHCDLCTQRGFICQICQHHDIIFPFEFDTTVRCAECKTVFHQSCQAVVKKGCPRCARRRKYQEQNIFA
modifications: left off: Flag, end not stated, kept
Turning to B1, the “co-precipitation with GFP-LC3B” value is recorded as “increased co‐precipitation with GFP‐LC3B” with GFP-LC3B and “increased interaction” with GFP-LC3B (listed as Plekhm1-WCIL).

B2: Plekhm1-mutLIR: full-length PLEKHM1-Flag, mutant LIR EDEWVNV/AAAAVNG (protein)
chain: B1 chain with E632A, D633A, E634A, W635A, C636V, I637N, L638G
modifications: left off: Flag, end not stated, kept
In the case of B2, the “co-precipitation with GFP-LC3B” value in the test on GFP-LC3B was “decreased interaction”.

B3: E19V: GFP-FUNDC1 E19V (protein, UniProt Q8IVP5 1-155, looked up, variant E19V)
FUN14 domain-containing …: MATRNPPPQDYESDDDSYVVLDLTEYARRHQWWNRVFGHSSGPMVEKYSVATQIVMGGVTGWCAGFLFQKVGKLAATAVGGGFLLLQIASHSGYVQIDWKRVEKDVNKAKRQIKKRANKAAPEINNLIEEATEFIKQNIVISSGFVGGFLLGLAS
modifications: GFP tag
B3: the “interaction of FUNDC1 with endogenous GABARAP” value in the test on endogenous GABARAP is recorded as “moderately enhanced”. In addition, the “interaction of FUNDC1 with endogenous LC3” value in the test with endogenous LC3B is reported as “increased LC3 interaction”.

B4: L21V: GFP-FUNDC1 L21V (protein, UniProt Q8IVP5 1-155, looked up, variant L21V)
FUN14 domain-containing …: B3 FUN14 domain-containing … with V19E, L21V
modifications: GFP tag
In the case of B4, the “interaction of FUNDC1 with endogenous GABARAP” value with endogenous GABARAP is reported as “little effect”. The “interaction of FUNDC1 with endogenous LC3” value in the test on endogenous LC3B is reported as “little effect”.
